Assay results reported in paper PMC6222095.
“And” between values parts separate entries of the source, which are not always exact repeats. Identical values can stand only once. One block for each substance: values may come before it.

What was measured:
[1] = target: complement factor H, double homozygous His-402/Val-62 allotype (human) (UniProt P08603); test: native MS; Q-ToF nanoflow, FH at about 4 mg/ml (4.4 or 3.6 mg/ml) in 1 M ammonium acetate, pH 7.0; peak integration
[2] = target: complement factor H, double homozygous His-402/Val-62 allotype (human) (UniProt P08603); test: native MS; Q-ToF nanoflow, FH at about 4 mg/ml (3.9 mg/ml, 25.3 μM) in 140 mM ammonium acetate, pH 7.0; peak integration
[3] = target: complement factor H, double homozygous His-402/Val-62 allotype (human) (UniProt P08603); test: SAXS; concentration dependence of Guinier I(0)/c at 0.4-3.3 mg/ml in HEPES buffer, two samples of each allotype; KD estimated assuming a monomer-dimer equilibrium (dimer to monomers)
[4] = target: complement factor H, double homozygous His-402/Val-62 allotype (human) (UniProt P08603); test: AUC; sedimentation velocity, 20 °C, 50,000 and 60,000 rpm, HEPES buffer (10 mM HEPES, 137 mM NaCl, pH 7.4), five samples of each allotype at 0.5, 1.1 and 2.1 mg/ml; c(s) peak integration; dimer and trimer percentages at 1.1 mg/ml
[5] = target: complement factor H, double homozygous His-402/Val-62 allotype (human) (UniProt P08603); test: SPR; Biacore X100, 800 RU of full-length FH amine-coupled to a CM3 chip, FH allotypes flowed at 1.3-12.3 μM, 25 °C, HEPES buffer; estimated KD from steady-state 1:1 affinity fit of maximum responses; sensorgrams did not fit a 1:1 kinetic model
[6] = target: complement factor H, homozygous Tyr-402, homozygous or heterozygous at I62V (human) (UniProt P08603); test: SAXS; concentration dependence of Guinier I(0)/c at 0.4-3.3 mg/ml in HEPES buffer, two samples of each allotype; KD estimated assuming a monomer-dimer equilibrium (dimer to monomers)
[7] = target: complement factor H, homozygous Tyr-402, homozygous or heterozygous at I62V (human) (UniProt P08603); test: AUC; sedimentation velocity, 20 °C, 50,000 and 60,000 rpm, HEPES buffer (10 mM HEPES, 137 mM NaCl, pH 7.4), five samples of each allotype at 0.5, 1.1 and 2.1 mg/ml; c(s) peak integration; dimer and trimer percentages at 1.1 mg/ml
[8] = target: complement factor H, homozygous Tyr-402/Val-62 allotype (human) (UniProt P08603); test: native MS; Q-ToF nanoflow, FH at about 4 mg/ml (4.4 or 3.6 mg/ml) in 1 M ammonium acetate, pH 7.0; peak integration
[9] = target: complement factor H, homozygous Tyr-402/Val-62 allotype (human) (UniProt P08603); test: native MS; Q-ToF nanoflow, FH at about 4 mg/ml (3.9 mg/ml, 25.3 μM) in 140 mM ammonium acetate, pH 7.0; peak integration
[10] = target: complement factor H, homozygous Tyr-402/Val-62 allotype (human) (UniProt P08603); test: SPR; Biacore X100, 800 RU of full-length FH amine-coupled to a CM3 chip, FH allotypes flowed at 1.3-12.3 μM, 25 °C, HEPES buffer; estimated KD from steady-state 1:1 affinity fit of maximum responses; sensorgrams did not fit a 1:1 kinetic model
[11] = target: recombinant FH SCR-6/8 His-402 (human); test: SPR; Biacore X100, 150 RU (His-402 also 400 RU) of SCR-6/8 amine-coupled to a CM4 chip, SCR-6/8 allotypes flowed at 5-40 μM, 25 °C, HEPES buffer with 0.3 mg/ml nonspecific binding reducer; steady-state fits
[12] = target: recombinant FH SCR-6/8 Tyr-402 (human); test: as above

Substance: complement factor H, homozygous Tyr-402, homozygous or heterozygous at I62V (from UniProt P08603 19-1231) (natural protein)
- Kd [6]: 16 µM and 18 µM
- percent dimer [7]: 4%
- percent oligomers (peaks 2-9) [7]: 11.7%
- percent trimer [7]: 2.1%
- stoichiometry N [7]: < 9

Substance: complement factor H, homozygous Tyr-402/Val-62 allotype (from UniProt P08603 19-1231) (natural protein)
- percent dimer [8]: 10%
- stoichiometry N [8]: 2
- percent dimer [9]: 24%
- percent trimer [9]: 4%
- stoichiometry N [9]: < 3
- Kd [10]: 8 µM

Substance: recombinant FH SCR-6/8 Tyr-402 (domain or fragment)
- Kd [11]: > 40 µM
- Kd [12]: > 40 µM

Second part, the substance after the results:

- percent dimer [1]: 2%
- stoichiometry N [1]: 2
- percent dimer [2]: 17%
- percent trimer [2]: 6%
- stoichiometry N [2]: < 3
- Kd [3]: 11 µM and 22 µM
- percent dimer [4]: 5.7%
- percent oligomers (peaks 2-9) [4]: 12.8%
- percent trimer [4]: 2.5%
- stoichiometry N [4]: < 9
- Kd [5]: 6.7 µM
Substance: complement factor H, double homozygous His-402/Val-62 allotype (from UniProt P08603 19-1231) (natural protein)

- Kd [11]: > 40 µM
- Kd [12]: > 40 µM
Substance: recombinant FH SCR-6/8 His-402 (domain or fragment)
